Test results taken from the supplement of paper PMC9233669.
This sample holds only a part of the variants without activity.

Columns and labels:
[1] = test system: biotinyl-Leu-oxazolone; assay: self-aminoacylation, catalytic enhancement (BLO) (fold over background); higher = more active; k-Seq, kA / k0A0; sequences stand for … in GGGAAUGGAUCCACAUCUACGAAUUC…UUCACUGCAGACUUGACGAAGCUG
In short: (§1)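 The uncatalyzed rate is the low-activity peak of a bimodal Gaussian fit, and catalytic enhancement is median kA divided by it. The kA values came from pseudo-first-order fits, with 1000 bootstraps, of per-sequence fraction reacted measured by streptavidin capture, triplicate qPCR and Illumina sequencing. Mutagenized RNA pools with a 21-nt variable region (0.43 μM) were reacted with each biotinyl-aminoacyl-oxazolone at 2–1250 μM in 50 μL HEPES/NaCl/KCl/MgCl2/CaCl2 buffer with 5% acetonitrile, pH 6.9–7.0, for 90 minutes at room temperature.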

[2] = test system: biotinyl-Val-oxazolone; assay: self-aminoacylation, catalytic enhancement (BVO) (fold over background); higher = more active; k-Seq, kA / k0A0; sequences stand for … in GGGAAUGGAUCCACAUCUACGAAUUC…UUCACUGCAGACUUGACGAAGCUG
In short: as §1

[3] = test system: biotinyl-Trp-oxazolone; assay: self-aminoacylation, catalytic enhancement (BWO) (fold over background); higher = more active; k-Seq, kA / k0A0; sequences stand for … in GGGAAUGGAUCCACAUCUACGAAUUC…UUCACUGCAGACUUGACGAAGCUG
In short: as §1

[4] = test system: biotinyl-Ile-oxazolone; assay: self-aminoacylation, catalytic enhancement (BIO) (fold over background); higher = more active; k-Seq, kA / k0A0; sequences stand for … in GGGAAUGGAUCCACAUCUACGAAUUC…UUCACUGCAGACUUGACGAAGCUG
In short: as §1

[5] = test system: biotinyl-Met-oxazolone; assay: self-aminoacylation, catalytic enhancement (BMO) (fold over background); higher = more active; k-Seq, kA / k0A0; sequences stand for … in GGGAAUGGAUCCACAUCUACGAAUUC…UUCACUGCAGACUUGACGAAGCUG
In short: as §1

[6] = test system: biotinyl-Phe-oxazolone; assay: self-aminoacylation, catalytic enhancement (BFO) (fold over background); higher = more active; k-Seq, kA / k0A0; sequences stand for … in GGGAAUGGAUCCACAUCUACGAAUUC…UUCACUGCAGACUUGACGAAGCUG
In short: as §1

Sequence	self-aminoacylation [1]	self-aminoacylation [2]	self-aminoacylation [3]	self-aminoacylation [4]	self-aminoacylation [5]	self-aminoacylation [6]
AAAAUUGCUAAUAGUCGCAAG [Fam3.1 aminoacylation ribozyme variant]	1.78	1.73	3.04	1.93	1.33	2.58
AUUCACCAAUGUCAUCGGGUG [Fam2.2 aminoacylation ribozyme variant]	12.6	5.57	8.56	5.59	9.72	75.3
CUACUUCGAACAAUAGGUCUG [Fam1A.1 aminoacylation ribozyme variant]	0.461	0.745	0.421	0.547	0.471	0.503
ACUACCCUGCUCAUCGAGUGA [Fam2.1 aminoacylation ribozyme variant]	2.44	1.85	1.93	1.37	1.45	2.39
CUACUUCAAACGAUGGGUCUG [Fam1A.1 aminoacylation ribozyme variant]	0.764	1	0.62	0.746	0.58	0.674
CUACACUUAAAGCAAUCGGUC [Fam1B.1 aminoacylation ribozyme variant]	0.696	0.738	0.459	0.786	0.713	0.694
CCUCACUUCAAGCAAUCGAUC [Fam1B.1 aminoacylation ribozyme variant]	0.453	0.691	0.672	0.494	0.482	1.71
GAUACCCUGGUCAUCGAGUGA [Fam2.1 aminoacylation ribozyme variant]	7.96	5.43	10.5	4.92	8.5	31.6
CCACACUUCAGGUAAUCGGUC [Fam1B.1 aminoacylation ribozyme variant]	0.824	1.07	0.712	0.805	0.887	1.07
AAGUUUCCUAAUAGUCACAAG [Fam3.1 aminoacylation ribozyme variant]	1.64	1.61	1.23	1.8	1.77	2.29
CCACACUUCAAGCGAUCGCUC [Fam1B.1 aminoacylation ribozyme variant]	2.28	2.03	2.83	2.62	1.85	4.68
CCACUCUUCAAGCACUCGGUC [Fam1B.1 aminoacylation ribozyme variant]	1.04	0.928	0.816	1.02	1.15	0.56
CCGCACUUCAAGUAAUCGGUC [Fam1B.1 aminoacylation ribozyme variant]	1.54	1.37	14.5	1.3	1.4	15.6
AUUCACCUAGGCCCUCGGGUG [Fam2.2 aminoacylation ribozyme variant]	3.88	3.1	3.75	2.81	3.26	24.2
AUUAACGUAGGUCAUCGGGUG [Fam2.2 aminoacylation ribozyme variant]	3.84	3.05	3.61	2.52	4.05	42.1
AAGUUCGCUAAUCGUCGCAAG [Fam3.1 aminoacylation ribozyme variant]	1.05	1.48	2.55	1.6	1.25	6.17
AUUCACCCAGGUCAUCGGAUG [Fam2.2 aminoacylation ribozyme variant]	0.895	0.988	1.07	0.889	0.669	0.458
CAACACUUCAAGCAAUGGGUC [Fam1B.1 aminoacylation ribozyme variant]	0.882	0.664	0.833	0.858	0.834	0.677
AAUUCCCUGGUCAUCGAGUGA [Fam2.1 aminoacylation ribozyme variant]	10.8	6.09	13	5.6	10.1	41.5
ACUACCCUGGUCAACGAGUGA [Fam2.1 aminoacylation ribozyme variant]	5.55	3.82	6.49	3.48	5.53	17
CCACACUUCAGGCUAUCGGUC [Fam1B.1 aminoacylation ribozyme variant]	1.23	1.33	1.39	1.33	1.1	0.514
UUUCACCUAGGUGAUCGGGUG [Fam2.2 aminoacylation ribozyme variant]	4.15	3.67	5.69	3.55	3.5	24.3
AUUAACCUGGGUCAUCGGGUG [Fam2.2 aminoacylation ribozyme variant]	15.6	6.35	11.4	6.99	13.4	39.6
CUACUCCAAACAAUCGGUGUG [Fam1A.1 aminoacylation ribozyme variant]	0.964	0.879	0.752	0.733	0.945	1.03
AUUACCCUGGUCAUCAAGCGA [Fam2.1 aminoacylation ribozyme variant]	0.895	1.13	0.661	0.846	1	0.84
CUACUUCAAACCAGCGGUCUG [Fam1A.1 aminoacylation ribozyme variant]	1.09	1.13	0.677	0.921	0.722	0.715

Sequence	self-aminoacylation [1]	self-aminoacylation [2]	self-aminoacylation [3]	self-aminoacylation [4]	self-aminoacylation [5]	self-aminoacylation [6]
AAGUUUGAUCAUAGUCGCAAG [Fam3.1 aminoacylation ribozyme variant]	1.62	1.76	1.2	1.69	1.55	2.45
CAACACCUCAAGCAAUCGGUC [Fam1B.1 aminoacylation ribozyme variant]	1.1	0.914	0.997	0.947	1.27	1.3
CUACUUCAAAGAACCGGUCUG [Fam1A.1 aminoacylation ribozyme variant]	0.847	0.815	0.734	0.994	0.715	0.687
AAGUUUGGUAAUCGUCGCAAG [Fam3.1 aminoacylation ribozyme variant]	1.33	1.32	1.52	1.39	1.49	1.07
AGUCACGUAGGUCAUCGGGUG [Fam2.2 aminoacylation ribozyme variant]	5.72	5.07	6.71	3.96	5.11	52.9
ACACACUUCAAGCAACCGGUC [Fam1B.1 aminoacylation ribozyme variant]	1.17	1.54	1.13	1.18	1.51	1.43
AUUACCCUGGGCAUCGAGUCA [Fam2.1 aminoacylation ribozyme variant]	0.72	0.768	0.708	0.946	0.719	0.615
CCAUACUUCAAGCAAUCGGUG [Fam1B.1 aminoacylation ribozyme variant]	8.33	4.3	6.14	4.16	5.58	24.4
AUUGACCUAGGUCACCGGGUG [Fam2.2 aminoacylation ribozyme variant]	6.34	4.87	6.05	4.43	4.69	29.6
AAGGUUGCAAAUAGUCGCAAG [Fam3.1 aminoacylation ribozyme variant]	1.2	1.08	1.66	1.41	1.02	1.44
CUUGCCCUGGUCAUCGAGUGA [Fam2.1 aminoacylation ribozyme variant]	14.7	7.34	16.5	6.56	15.4	64.3
UAGUUUGCUAAUAAUCGCAAG [Fam3.1 aminoacylation ribozyme variant]	0.887	1.12	0.875	1.11	1.04	1.77
GAGUCUGCUAAUAGUCGCAAG [Fam3.1 aminoacylation ribozyme variant]	2.07	1.63	14	1.99	2.34	46.9
CUUCACCUAGGCCAUCGGGUG [Fam2.2 aminoacylation ribozyme variant]	4.08	3.8	4.2	2.55	3.12	11.2
UAGUUAGCUAAUAGUCGCAAG [Fam3.1 aminoacylation ribozyme variant]	1.8	1.52	1.11	1.72	2.06	2.37
AUUCACCUAGGUCAUCGAGGG [Fam2.2 aminoacylation ribozyme variant]	2.89	1.43	1.1	1.58	2.19	3.09
CUACUUCAAACAUUCGGUCUC [Fam1A.1 aminoacylation ribozyme variant]	0.806	0.975	0.715	0.986	0.849	0.796
CCACAAUUCAAGCACUCGGUC [Fam1B.1 aminoacylation ribozyme variant]	1.24	1.18	0.787	1.4	1.17	0.706
CUACUCCAAACAAUCUGUCUG [Fam1A.1 aminoacylation ribozyme variant]	0.716	0.766	0.506	0.799	0.578	0.973
CUACUUGAAAGAAUCGGUCUG [Fam1A.1 aminoacylation ribozyme variant]	0.693	0.771	0.731	0.869	0.974	0.599
AUUACCCAGUUCAUCGAGUGA [Fam2.1 aminoacylation ribozyme variant]	3.09	2.62	4.78	2.14	3.69	16.8
CCACACUUCUAGCAAUCGGUG [Fam1B.1 aminoacylation ribozyme variant]	4.64	2.62	3.09	2.65	3.47	19.8
CCACACUUGAGGCAAUCGGUC [Fam1B.1 aminoacylation ribozyme variant]	1.6	1.81	1.86	1.63	1.48	1.28
AUUCACCUAUGUCAUCGGCUG [Fam2.2 aminoacylation ribozyme variant]	1.26	1.3	0.681	1.38	1.21	0.644
AUUUCCCUGAUCAUCGAGUGA [Fam2.1 aminoacylation ribozyme variant]	5.98	3.27	7.61	3	6.25	18.5
